Results from PMC6943663, “A Single-Turnover Kinetic Study of DNA Demethylation Catalyzed by Fe(II)/α-Ketoglutarate-Dependent Dioxygenase AlkB”.

How the values were obtained:
[1] = molecular target: T1, AlkB (Escherichia coli, UniProt P05050 1-216); assay: stopped-flow Trp fluorescence, from rate constants of steps 1-3; Fe(II), aKG; 50 mM HEPES-KOH pH 7.5, 50 mM KCl, 10 mM MgCl2, 40 uM Fe(II), 1 mM aKG, 2 mM ascorbate (composition as given for the anaerobic runs); stopped-flow at 37 C; titration temperature not given in the material; conditions: protein: recombinant; tags: His6; single strand
T1 sequence: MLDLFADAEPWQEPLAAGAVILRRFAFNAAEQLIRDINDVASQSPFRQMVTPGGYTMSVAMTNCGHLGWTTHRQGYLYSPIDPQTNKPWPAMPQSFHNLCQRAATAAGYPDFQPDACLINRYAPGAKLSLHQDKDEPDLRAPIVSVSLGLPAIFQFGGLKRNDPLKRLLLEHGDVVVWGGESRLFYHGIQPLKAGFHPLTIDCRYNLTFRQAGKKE

[2] = molecular target: T1, AlkB; assay: stopped-flow 2aPu fluorescence, global fit (enzyme-product complex); Fe(II), aKG; after turnover; 50 mM HEPES-KOH pH 7.5, 50 mM KCl, 10 mM MgCl2, 40 uM Fe(II), 1 mM aKG, 2 mM ascorbate (composition as given for the anaerobic runs); stopped-flow at 37 C; titration temperature not given in the material; conditions: protein: recombinant, tags: His6, label: 2-aminopurine
[3] = molecular target: T1, AlkB; assay: stopped-flow FRET; Fe(II), aKG; 50 mM HEPES-KOH pH 7.5, 50 mM KCl, 10 mM MgCl2, 40 uM Fe(II), 1 mM aKG, 2 mM ascorbate (composition as given for the anaerobic runs); stopped-flow at 37 C; titration temperature not given in the material; conditions: protein: recombinant; tags: His6; label: 5'-FAM, 3'-BHQ1 on strand 1; blunt
[4] = molecular target: T1, AlkB; assay: stopped-flow FRET, global fit (enzyme-product complex); Fe(II), aKG; after turnover; 50 mM HEPES-KOH pH 7.5, 50 mM KCl, 10 mM MgCl2, 40 uM Fe(II), 1 mM aKG, 2 mM ascorbate (composition as given for the anaerobic runs); stopped-flow at 37 C; titration temperature not given in the material; conditions: protein: recombinant, tags: His6, label: 5'-FAM

ACAGGATCCGGCATA (ssDNA, N1-methyladenine at position 6) [ss15m1A] was tested. Which Kd [1] did it give?
The Kd was 4.3 nM.

B1: ds15A_2aPu (demethylated product of ds15m1A_2aPu) (dsDNA)
DNA 1: ACAGGAACCGGCATA
DNA 2: TATGCCGGTTCCTGT
modifications: 2-aminopurine at position 7 of strand 1 (written A)
With B1 as the binder, how does the Kd ([2]; blunt) read?
The Kd was 1800 nM.

B2: ds15m1A_FRET (dsDNA)
DNA 1: ACAGGATCCGGCATA
DNA 2: TATGCCGGATCCTGT
modifications: N1-methyladenine at position 6 of strand 1
Does B2 bind [3]?
Result: binds

B3: ds15A_FRET (demethylated product of ds15m1A_FRET) (dsDNA)
DNA 1: ACAGGATCCGGCATA
DNA 2: TATGCCGGATCCTGT
For B3, which Kd ([4]; 3'-BHQ1 on strand 1, blunt) is on record?
Its Kd is 4400 nM.

For ACAGGATCCGGCATA (ssDNA) [ss15A_FRET (demethylated product of ss15m1A_FRET)], which Kd ([4]; 3'-BHQ1, single strand) is on record?
Its Kd is 310 nM.

For ACAGGAACCGGCATA (ssDNA, 2-aminopurine at position 7 (written A)) [ss15A_2aPu (demethylated product of ss15m1A_2aPu)], which Kd ([2]; single strand) is on record?
Its Kd is 2200 nM.
